IntAct's records for PubMed 20729810

B1: G protein-coupled receptor kinase 6 (Homo sapiens), P43250 (parent)
chain: MELENIVANTVLLKAREGGGGNRKGKSKKWRQMLQFPHISQCEELRLSLERDYHSLCERQPIGRLLFREFCATRPELSRCVAFLDGVAEYEVTPDDKRKACGRQLTQNFLSHTGPDLIPEVPRQLVTNCTQRLEQGPCKDLFQELTRLTHEYLSVAPFADYLDSIYFNRFLQWKWLERQPVTKNTFRQYRVLGKGGFGEVCACQVRATGKMYACKKLEKKRIKKRKGEAMALNEKQILEKVNSRFVVSLAYAYETKDALCLVLTLMNGGDLKFHIYHMGQAGFPEARAVFYAAEICCGLEDLHRERIVYRDLKPENILLDDHGHIRISDLGLAVHVPEGQTIKGRVGTVGYMAPEVVKNERYTFSPDWWALGCLLYEMIAGQSPFQQRKKKIKREEVERLVKEVPEEYSERFSPQARSLCSQLLCKDPAERLGCRGGSAREVKEHPLFKKLNFKRLGAGMLEPPFKPDPQAIYCKDVLDIEQFSTVKGVELEPTDQDFYQKFATGSVPIPWQNEMVETECFQELNVFGLDGSVPPDLDWKGQPPAPPKKGLLQRLFSRQDCCGNCSDSEEELPTRL

Variants of: B1
Settings: with rom1_bovin ROM1, P52205
rom1_bovin ROM1, P52205, sequence (P52205 whole entry): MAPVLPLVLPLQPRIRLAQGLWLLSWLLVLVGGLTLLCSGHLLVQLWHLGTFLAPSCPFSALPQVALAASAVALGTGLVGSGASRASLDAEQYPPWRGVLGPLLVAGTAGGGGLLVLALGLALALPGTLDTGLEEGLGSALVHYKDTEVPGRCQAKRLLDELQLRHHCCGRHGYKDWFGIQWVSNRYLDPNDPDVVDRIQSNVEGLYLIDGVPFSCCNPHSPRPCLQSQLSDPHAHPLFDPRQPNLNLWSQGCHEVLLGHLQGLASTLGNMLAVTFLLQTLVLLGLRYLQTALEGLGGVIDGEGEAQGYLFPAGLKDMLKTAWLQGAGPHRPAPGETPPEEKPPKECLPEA

Row | Variant | effect of a mutation on the interaction
1 | L3A | decreasing interaction

Variants of: B1
Settings: with rom1_bovin ROM1, P52205
Remark: another data set of the same source

Row | Variant | effect of a mutation on the interaction
2 | V7A | decreasing interaction

Variants of: B1
Settings: with rom1_bovin ROM1, P52205
Remark: another data set of the same source

Row | Variant | effect of a mutation on the interaction
3 | V7E | disrupting interaction
4 | I6E | disrupting interaction

Variants of: B1
Settings: with rom1_bovin ROM1, P52205
Remark: another data set of the same source

Row | Variant | effect of a mutation on the interaction
5 | E4A | decreasing interaction

Variants of: B1
Settings: with rom1_bovin ROM1, P52205
Remark: another data set of the same source

Row | Variant | effect of a mutation on the interaction
6 | N9A | disrupting interaction

Variants of: B1
Settings: with rom1_bovin ROM1, P52205
Remark: another data set of the same source

Row | Variant | effect of a mutation on the interaction
7 | L12A | disrupting interaction

Variants of: B1
Settings: with rom1_bovin ROM1, P52205
Remark: another data set of the same source

Row | Variant | effect of a mutation on the interaction
8 | I6A | decreasing interaction

Variants of: B1
Settings: with rom1_bovin ROM1, P52205
Remark: another data set of the same source

Row | Variant | effect of a mutation on the interaction
9 | L13A | decreasing interaction
